# Data published in US20040054131A1 (CHIRON, published 2004).
# Bridges are numbered along the chain shown (N, C = ends). Where no end group is shown, it is not given here.
# B1: FGFR1c extracellular domain-IgG fusion protein (Fc fusion, human, UniProt P11362 22-377, looked up)
# chain: RPSPTLPEQAQPWGAPVEVESFLVHPGDLLQLRCRLRDDVQSINWLRDGVQLAESNRTRITGEEVEVQDSVPADSGLYACVTSSPSGSDTTYFSVNVSDALPSSEDDDDDDDSSSEEKETDNTKPNRMPVAPYWTSPEKMEKKLHAVPAAKTVKFKCPSSGTPNPTLRWLKNGKEFKPDHRIGGYKVRYATWSIIMDSVVPSDKGNYTCIVENEYGSINHTYQLDVVERSPHRPILQAGLPANKTVALGSNVEFMCKVYSDPQPHIQWLKHIEVNGSKIGPDNLPYVQILKTAGVNTTDKEMEVLHLRNVSFEDAGEYTCLAGNSIGLSHHSAWLTVLEALEERPAVMTSPLYLEI
# notes: range 1-377; also called FGFR-IgG; FGFR ECD; not shown: Fc region of human IgG1
# What was measured:
# [1] = molecular target: B1; experiment: BIAcore real-time kinetic analysis, immobilized FGFR1c ECD, no heparin; approximate apparent affinity
# Experimental: C19 peptide with an intrapeptide disulfide bond was synthesized, purified by HPLC, and characterized by mass spectroscopy. C19junΔhep protein was prepared by changing human c-jun residues Arg276, Arg279, Lys285, and Lys288 in the leucine zipper domain to glutamines. […] The extracellular ligand-binding domain of human FGFR Ic (residues 1-377) and human erythropoietin receptor (residues 1-250) were fused to the Fe region of human IgGI, expressed in baculovirus and purified by protein A affinity chromatography. […] PDGF receptor Fc fusion protein was from R&D Systems.
# [2] = molecular target: T1, F12 phagemid (F12 clone peptide displayed on M13 p8) (bacteriophage M13); experiment: displacement of Europium-labeled FGFR-IgG by unlabeled FGFR-IgG from F12 phagemid captured on anti-M13 antibody (time-resolved fluorescence)
# T1 construct: Assayed as whole phagemid particles captured by anti-M13 antibody; The frame A-X3-C-X10-C-X3-(GGS)2GG-p8 is inferred from the 18mer two-cysteine pattern of F12; not shown: M13 p8 coat protein, peptide fused to its N-terminus
# Experimental: Nunc Maxisorp 96-well plates were coated with […] anti-M13 antibody in […] 50 mM Na₂CO₃ pH 9.6 and blocked using the conditions described in Example 2. Phagemid (˜10¹¹ cfu) were applied to wells in binding buffer for 1h and washed 6 times with PBS, 0.05% Tween 20, and 2 times with Delphia Wash Buffer (E&G Wallac). […] Wells were washed 8× in Delphia Wash Buffer, treated with 100 μL of Delphia Enhancer Solution and fluorescence measured. IC₅₀ values were determined from four-parameter fits to displacement plots.
# [3] = molecular target: B1; experiment: deletion mutant analysis; method not stated
# [4] = molecular target: FGF receptor (FGFR) on Swiss 3T3 cells; experiment: cell-based or functional assay
Binder,Kd [1] [nM],further results
"AESGDDYCVLVFTDSAWTKICDWSHFRN (disulfide 8-21 (inferred), also called C19 peptide; C19 clone) [C19 synthetic peptide]",400,–
B1,–,IC50 [2]: ~12 nM
AESGDDYCVLVFTDSAWTKIC [C19 with truncation of the C-terminal 7 amino acids],–,fold loss of affinity against untruncated C19 [3]: ~15 fold
"C19-jun fusion protein (designed binder, also called Clone 19-jun protein) MAESGDDYCVLVFTDSAWTKICDWSHFRNGPGGGSGGGSGGGSGGGSGGGSRCGGRIARLEEKVKTLKAQNSELASTANMLREQVAQLKQKVMNHGGCGGSGGHHHHHH",10,EC50 of mitogenesis (BrdU incorporation) in Swiss 3T3 cells with 15 U/ml heparin [4]: 0.24 nM
"C19junΔhep (designed binder, also called C19jun?hep; C19junahep) MAESGDDYCVLVFTDSAWTKICDWSHFRNGPGGGSGGGSGGGSGGGSGGGSRCGGQIAQLEEKVQTLQAQNSELASTANMLREQVAQLKQKVMNHGGCGGSGGHHHHHH",10,–
